Source: article PMC7096766

Molecular target: human alpha-thrombin (Homo sapiens, UniProt P00734;P00734 328-363;364-622)
Test: SEC mobility shift

Binder	binding result
TTTTTTGGTTGGTGTGGTTGG (structured_DNA, 5'-C6-NH2, DBCO; conjugated by azide-DBCO cycloaddition to spider silk protein eADF4(C16)) [apt15-rssp (tba15-rssp)]	binds
TTTTTTAGTCCGTGGTAGGGCAGGTTGGGGTGACT (structured_DNA, 5'-C6-NH2, DBCO; conjugated by azide-DBCO cycloaddition to spider silk protein eADF4(C16)) [apt29-rssp (tba29-rssp)]	binds
